Data as given in patent publication US20250115926A1, “DEREGULATED DHS AND TYRA ENZYMES OF GRASSES ENABLE EFFICIENT PRODUCTION OF BOTH TYROSINE AND PHENYLALANINE” (Wisconsin Alumni Research Foundation, priority 2023, published 2025).

What was measured:
[1] = tested on: Nicotiana benthamiana leaves; test: Transient expression of TyrA genes in Nicotiana benthamiana leaves (CaMV 35S promoter), tyrosine by HPLC; assay type: in vivo; conditions: infiltrated leaves, 72 hours
Experimental: Agrobacterium tumefaciens strain GV3101 transformed with the plant expression constructs were grown at 28° C. for 24 to 36 hours in 10 mL of LB liquid media containing the corresponding antibiotics. The saturated cultures were spun down at 3,000 g for 5 minutes at room temperature and washed twice with 3 mL of induction media (IM; 10 mM MES [2-(N-morpholino) ethanesulfonic acid] buffer pH 5.6, 0.5% glucose, 2 mM NaH2PO4, 20 mM NH4Cl, 1 mM MgSO4, 2 mM KCl, 0.1 mM CaCl2), 0.01 mM FeSO4, and 0.2 mM acetosyringone). After washing, bacteria cultures were incubated in IM for 2 to 3 hours at room temperature in the dark, pelleted at 3000 g for 5 minutes, and resuspended into 3 mL of 10 mM MES buffer pH 5.6 with 0.2 mM acetosyringone. OD600nm was adjusted to a final density of 0.25 units for pAGM4673::TyrA (FIG. 3F) and pICH47822::DHS (FIG. 5A) infiltration, or 0.5 units for pAGM4673::TyrA-DHS co-expression constructs (FIG. 5B) using 10 mM MES buffer pH 5.6 with 0.2 mM acetosyringone. For infiltration of pICH47822::DHS constructs, the Agrobacterium suspensions were adjusted to OD600nm=0.5 and mixed with an equal volume of a suspension of an Agrobacterium clone transformed with pICH4780::p19 under control of the Arabidopsis ubiquitin ligase promoter adjusted to OD600nm=0.5, resulting in a final mixture of 0.25 OD600nm units for each construct. […] Nicotiana benthamiana plants of around 4-weeks-old were infiltrated close to the end of the light period into four different spots per plant, distributed into two leaves at two infiltrations per leaf, with each individual spot corresponding with a different construct/treatment. […]
The infiltrated leaf areas, excluding the midrib and major veins, were harvested at 72 hours after infiltration and frozen immediately in liquid nitrogen. […] A tyrosine peak was detected at the retention time of ˜3.5 minutes using fluorescence detection mode (excitation wavelength 274 nm, emission wavelength 303 nm) and quantified with an authentic tyrosine standard (Alfa Acsar, catalog number AAA1114118). […]

[2] = TyrA feedback inhibition by tyrosine (recombinant enzymes); assay type: biochemical; conditions: FIG. 12
[3] = tested on: Nicotiana benthamiana leaves; test: Co-expression of BdTyrA and BdDHS enzymes in Nicotiana benthamiana leaves; assay type: in vivo
Excerpt: Gene expression data in Brachypodium (FIG. 4B) indicate that BdTyrA1 is co-expressed with BdDHS1b and BdPTAL in the internodes, where we detected a high rate of tyrosine production (FIG. 2). […] We therefore hypothesized that BdTyrA1 and BdDHS1b may co-operate in the high production of tyrosine and phenylalanine observed in grass tissues. To test this possibility, we co-expressed in planta different combinations of BdTyrA enzymes and BdDHS enzymes and measured the impact on phenylalanine and tyrosine levels. To this end, we took advantage of the Golden Gate modular cloning system^52 and assembled the BdTyrA and BdDHS expression cassettes into the same vector backbone (FIG. 13). To avoid causing a strong over-expression, BdTyrA and BdDHS were driven by RuBisCO small subunit promoters from Arabidopsis (PAtRbcS3B) and tomato (PSIRbcS3A), respectively (FIG. 13)^51. […] Similarly, no significant additive effects were observed upon co-expression of the BdTyrA enzymes with feedback-regulated BdDHS2 (FIG. 5B).
Agrobacterium tumefaciens strain GV3101 transformed with the plant expression constructs were grown at 28° C. for 24 to 36 hours in 10 mL of LB liquid media containing the corresponding antibiotics. […]
Aromatic amino acids and shikimate were detected using a Vanquish Horizon Binary UHPLC (Thermo Scientific) coupled to a Q Exactive mass spectrometer (Thermo Scientific). […]

type of inhibition by tyrosine with respect to arogenate [2] | Molecule | tyrosine content compared to the GUS control [1] | tyrosine levels relative to the tdTom+YPet control ([3]; RuBisCO small subunit promoters (FIG. 5B)) [times] | decrease of phenylalanine levels compared to YPet with tdTom control ([3]; expressed with tdTom control (FIG. 5B)) [times]
– | BdTyrA2: TyrA2 arogenate dehydrogenase of Brachypodium distachyon, SEQ ID NO: 35 (protein, Brachypodium distachyon) MSSSGRFHQPPSCRRPAALAQSLRASTTTVTCRWRQQYHHPLAAAPLRLRAVPVRATDAARQPFDHLSGAVKSEEGTHPRLKIAIVGFGNYGQFLARTMVQQGHTVLAHSRSDHSAAAATIGASFYADAHDLCECQPDVVLLSTSILSAEAVLRSLPVHRFRRSTLFADVLSVKEFPKNLLLAYLPGDFDVICTHPMFGPESARDGWAGLPFVFDEVRVGDGPARRARADAFLDVFAREGCRMVEMSCAEHDAHAAETQFLTHTVGRMLATLDLKSTPINTKGYETLLRLVDNTCSDSFDLYNGLFMYNNNATELLHRLESAMDSVKRRLFDGLHEVLRRQLFEGSPPLNRDSSFPAESSLDDGR | did not significantly increase tyrosine levels | – | –
competitive | BdTyrAnc: non-canonical TyrA enzyme of Brachypodium distachyon, SEQ ID NO: 37 (protein, Brachypodium distachyon) MASSLVHLSSPAGGRTAAAPPSLLSRFSPNFCAFATLRPGPTRPTAATPKHARARTCAEQEQKQEVAAPCRDAYEKPAVWNTTAADSAEAAPPLRVGIIGFGNFGQFIARGIQRQGHAVLATSRSDYSAYCSAQGIRYFRSLEALCEEQPNVLLVCSSILSTEAVVRAIPFHKLRSDTIVADVLSVKQFPRNLLLEILPPEFGIVCTHPMFGPESGKHGWSTLPFVYDKVRLADKGDQKANCGQFLSIFEGEGCRMVEMSCAEHDRHAAASQFITHTIGRVLAQLNLKSTPINTKGFEALLKLTENTVSDSFDLYYGLFMYNVNATEQIEKLERAFEKVKQMLYGRLHDILRKQIVERVPI | 8 times | ~100 | 4
– | SbTyrAnc: non-canonical TyrA enzyme of Sorghum bicolor, SEQ ID NO: 43 (protein, Sorghum bicolor) MASSLRHFAGLGCFPAVASTSGSTCCLRRYTPNFCAFVALRPISPPAATATATAKALTSPSPVEQHLQAVVPCHGISDPPAASSAAAVPAAPLRVGIVGFGNFGQFIAGGLQRQGHVVLAASRSDYSVYCASHGIRFFRSVDALCEEQPDVLLICSSILSTEGVVRAIPFRKLRHDTIVADVLSVKEFPRNLLLEVLPPGFGIICTHPMFGPESGKHGWGKLPFVFDKVRVAEDGDQAAKCDQFLSIFEQEGCRMVEMSCAEHDRYAAGSQFITHTIGRVLSQLNLKSTPINTKGYETLLQLTKNTVSDSFDLYYGLFMYNVNATEQLDKLEMAFEKVRQMLSGRLHDFIRKQIVERAAHVPADPSGKLANGLSSSPAARLL | 14 times | – | –
